Values quoted from earlier work in publication PMC6811625.

Target: Im7 (Escherichia coli) (UniProt Q03708)
Sequence (Q03708 whole entry): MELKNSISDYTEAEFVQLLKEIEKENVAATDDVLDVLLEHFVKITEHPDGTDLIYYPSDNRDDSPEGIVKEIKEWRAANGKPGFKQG

Sequence of Spy (P77754 24-161): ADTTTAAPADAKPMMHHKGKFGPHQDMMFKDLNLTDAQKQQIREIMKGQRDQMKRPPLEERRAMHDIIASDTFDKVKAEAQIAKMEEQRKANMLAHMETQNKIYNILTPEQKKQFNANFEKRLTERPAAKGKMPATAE

**Q.** For Spy (from UniProt P77754), which Kd is on record?
**A.** 30 µM
